Key:
AtheNA, Ab 6.25 ug/ml = substrate: T1, SSB (UniProt P05455); assay: AtheNA, Ab 6.25 ug/ml
T1 sequence (looked up): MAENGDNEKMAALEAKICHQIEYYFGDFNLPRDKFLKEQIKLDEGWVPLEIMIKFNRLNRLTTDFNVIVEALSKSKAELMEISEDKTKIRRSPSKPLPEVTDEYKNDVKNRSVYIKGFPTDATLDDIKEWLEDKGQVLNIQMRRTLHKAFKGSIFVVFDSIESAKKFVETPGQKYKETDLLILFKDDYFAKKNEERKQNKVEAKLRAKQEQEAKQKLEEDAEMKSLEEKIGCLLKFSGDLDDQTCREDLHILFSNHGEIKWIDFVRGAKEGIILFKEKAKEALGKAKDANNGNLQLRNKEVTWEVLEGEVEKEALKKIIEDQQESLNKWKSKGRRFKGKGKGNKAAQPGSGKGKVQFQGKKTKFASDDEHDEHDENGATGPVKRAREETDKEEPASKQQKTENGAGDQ

Centromere B [1] = target: T2, Centromere B (UniProt P07199); assay: AtheNA, Ab 50 ug/ml
T2 sequence (looked up): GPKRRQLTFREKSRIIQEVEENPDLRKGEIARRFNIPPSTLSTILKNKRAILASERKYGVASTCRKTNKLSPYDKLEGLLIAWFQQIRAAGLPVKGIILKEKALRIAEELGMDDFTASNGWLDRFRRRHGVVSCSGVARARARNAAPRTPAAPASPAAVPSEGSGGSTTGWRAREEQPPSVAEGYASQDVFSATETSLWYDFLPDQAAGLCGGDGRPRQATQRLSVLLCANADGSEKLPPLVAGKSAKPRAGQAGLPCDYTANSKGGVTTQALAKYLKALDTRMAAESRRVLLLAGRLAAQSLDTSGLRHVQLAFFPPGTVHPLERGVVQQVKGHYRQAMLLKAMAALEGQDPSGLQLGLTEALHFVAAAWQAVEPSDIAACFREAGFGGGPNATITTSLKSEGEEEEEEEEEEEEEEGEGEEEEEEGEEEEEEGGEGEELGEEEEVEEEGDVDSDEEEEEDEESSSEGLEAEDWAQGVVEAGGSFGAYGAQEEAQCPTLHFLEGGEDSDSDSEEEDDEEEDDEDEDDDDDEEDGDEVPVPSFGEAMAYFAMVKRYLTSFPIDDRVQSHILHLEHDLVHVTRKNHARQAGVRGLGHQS

Sm (Smith antigen) [2] = assay: AtheNA, Ab 50 ug/ml
Jo-1 [3] = target: T3, Jo-1 (UniProt P12081); assay: AtheNA, Ab 50 ug/ml
T3 sequence (looked up): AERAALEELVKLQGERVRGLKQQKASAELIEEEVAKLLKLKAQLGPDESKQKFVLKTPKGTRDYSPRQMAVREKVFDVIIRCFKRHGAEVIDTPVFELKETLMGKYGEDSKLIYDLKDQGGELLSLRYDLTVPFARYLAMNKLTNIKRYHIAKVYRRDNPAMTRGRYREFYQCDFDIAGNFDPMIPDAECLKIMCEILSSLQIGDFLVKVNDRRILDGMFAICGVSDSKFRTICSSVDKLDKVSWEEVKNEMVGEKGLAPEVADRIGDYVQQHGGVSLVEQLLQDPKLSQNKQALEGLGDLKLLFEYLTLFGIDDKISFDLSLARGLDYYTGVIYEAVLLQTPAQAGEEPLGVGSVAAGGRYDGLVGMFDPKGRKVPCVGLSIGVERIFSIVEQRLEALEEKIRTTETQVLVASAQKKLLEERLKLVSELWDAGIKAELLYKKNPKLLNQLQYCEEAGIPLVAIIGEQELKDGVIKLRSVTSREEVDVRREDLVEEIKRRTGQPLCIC

SSA [4] = assay: AtheNA, Ab 50 ug/ml
Histones [5] = assay: AtheNA, Ab 50 ug/ml
RNP (ribonucleoprotein) [6] = assay: AtheNA, Ab 12.5 ug/ml
Scl-70 [7] = target: Scl-70 (UniProt P11387); assay: AtheNA, Ab 12.5 ug/ml
Centromere B [8] = target: T2, Centromere B; assay: AtheNA, Ab 12.5 ug/ml
Sm (Smith antigen) [9] = assay: AtheNA, Ab 12.5 ug/ml
Jo-1 [10] = target: T3, Jo-1; assay: AtheNA, Ab 12.5 ug/ml
SSA [11] = assay: AtheNA, Ab 12.5 ug/ml
Histones [12] = assay: AtheNA, Ab 12.5 ug/ml
AtheNA, Ab 25 ug/ml = substrate: T1, ; assay: AtheNA, Ab 25 ug/ml
RNP (ribonucleoprotein) [13] = assay: AtheNA, Ab 25 ug/ml
Scl-70 [14] = target: Scl-70 (UniProt P11387); assay: AtheNA, Ab 25 ug/ml
Centromere B [15] = target: T2, Centromere B; assay: AtheNA, Ab 25 ug/ml
Sm (Smith antigen) [16] = assay: AtheNA, Ab 25 ug/ml
Jo-1 [17] = target: T3, Jo-1; assay: AtheNA, Ab 25 ug/ml
SSA [18] = assay: AtheNA, Ab 25 ug/ml
Histones [19] = assay: AtheNA, Ab 25 ug/ml
AtheNA, Ab 50 ug/ml = substrate: T1, ; assay: AtheNA, Ab 50 ug/ml
AtheNA, Ab 12.5 ug/ml = substrate: T1, ; assay: AtheNA, Ab 12.5 ug/ml
RNP (ribonucleoprotein) [20] = assay: AtheNA, Ab 6.25 ug/ml
Scl-70 [21] = target: Scl-70 (UniProt P11387); assay: AtheNA, Ab 6.25 ug/ml
Centromere B [22] = target: T2, Centromere B; assay: AtheNA, Ab 6.25 ug/ml
Sm (Smith antigen) [23] = assay: AtheNA, Ab 6.25 ug/ml
Jo-1 [24] = target: T3, Jo-1; assay: AtheNA, Ab 6.25 ug/ml
SSA [25] = assay: AtheNA, Ab 6.25 ug/ml
Histones [26] = assay: AtheNA, Ab 6.25 ug/ml

Sequence of Scl-70 (P11387 2-765 limits assumed): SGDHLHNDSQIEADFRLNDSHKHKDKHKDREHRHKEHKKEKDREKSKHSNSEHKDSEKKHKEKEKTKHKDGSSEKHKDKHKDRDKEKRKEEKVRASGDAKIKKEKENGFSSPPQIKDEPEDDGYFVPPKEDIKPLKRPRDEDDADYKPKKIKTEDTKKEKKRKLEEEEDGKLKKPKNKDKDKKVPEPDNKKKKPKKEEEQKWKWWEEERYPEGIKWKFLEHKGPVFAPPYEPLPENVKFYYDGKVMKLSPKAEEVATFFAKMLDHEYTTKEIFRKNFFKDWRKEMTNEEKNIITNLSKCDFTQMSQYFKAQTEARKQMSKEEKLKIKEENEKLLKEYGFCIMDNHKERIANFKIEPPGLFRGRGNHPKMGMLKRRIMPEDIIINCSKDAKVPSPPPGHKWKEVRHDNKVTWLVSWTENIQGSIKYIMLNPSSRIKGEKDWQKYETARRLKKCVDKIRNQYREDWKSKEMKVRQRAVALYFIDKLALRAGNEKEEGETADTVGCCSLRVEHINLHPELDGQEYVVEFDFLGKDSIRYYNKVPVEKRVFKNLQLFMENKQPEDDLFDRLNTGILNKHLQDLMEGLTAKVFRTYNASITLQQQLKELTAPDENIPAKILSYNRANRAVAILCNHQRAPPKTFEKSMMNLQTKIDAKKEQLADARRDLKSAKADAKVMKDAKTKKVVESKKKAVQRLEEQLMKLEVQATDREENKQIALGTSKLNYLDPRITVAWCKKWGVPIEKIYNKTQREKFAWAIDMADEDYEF

Athena reading (relative luminescence units) (AtheNA, Ab 6.25 ug/ml): 15 | Athena reading (relative luminescence units) (Centromere B [1]): 84 | Athena reading (relative luminescence units) (Sm (Smith antigen) [2]): 128 | Athena reading (relative luminescence units) (Jo-1 [3]): 145 | Athena reading (relative luminescence units) (SSA [4]): 177 | Athena reading (relative luminescence units) (Histones [5]): 138 | Athena reading (relative luminescence units) (RNP (ribonucleoprotein) [6]): 78 | Athena reading (relative luminescence units) (Scl-70 [7]): 50 | Athena reading (relative luminescence units) (Centromere B [8]): 233 | Athena reading (relative luminescence units) (Sm (Smith antigen) [9]): 258 | Athena reading (relative luminescence units) (Jo-1 [10]): 19 | Athena reading (relative luminescence units) (SSA [11]): 185 | Athena reading (relative luminescence units) (Histones [12]): 234 | Athena reading (relative luminescence units) (AtheNA, Ab 25 ug/ml): 175 | Athena reading (relative luminescence units) (RNP (ribonucleoprotein) [13]): 69 | Athena reading (relative luminescence units) (Scl-70 [14]): 62 | Athena reading (relative luminescence units) (Centromere B [15]): 129 | Athena reading (relative luminescence units) (Sm (Smith antigen) [16]): 165 | Athena reading (relative luminescence units) (Jo-1 [17]): 72 | Athena reading (relative luminescence units) (SSA [18]): 224 | Athena reading (relative luminescence units) (Histones [19]): 193 | Athena reading (relative luminescence units) (AtheNA, Ab 50 ug/ml): 207 | Athena reading (relative luminescence units) (AtheNA, Ab 12.5 ug/ml): 63 | Athena reading (relative luminescence units) (RNP (ribonucleoprotein) [20]): 40 | Athena reading (relative luminescence units) (Scl-70 [21]): 31 | Athena reading (relative luminescence units) (Centromere B [22]): 208 | Athena reading (relative luminescence units) (Sm (Smith antigen) [23]): 184 | Athena reading (relative luminescence units) (Jo-1 [24]): 7 | Athena reading (relative luminescence units) (SSA [25]): 44 | Athena reading (relative luminescence units) (Histones [26]): 154
B1: CH236_4A/293i (antibody, from a related filing, V domains shown)
VH: QVQLVQSGAAVKRPGASVTISCRASGYTFTTYYIHWVRQAPGQRLELMGMIDPSRGRTDYAQKFQGRVTMSRDTSTSTLYMELRSLRPDDTALYYCVRNVGTEGSLLHYDYWGQGTLVTVSS
VL: EIVLTQSPATLSVSPGERVTLSCRASQSVRNNLAWYRQKRGQAPRLLIYGASTRATGIPARFSGSGSGTEFTLTISSMQSEDFAVYYCQQYNNWWTFGQGTKVEIK
